Here are results for two molecules from PMC10914744, “Key homeobox transcription factors regulate the development of the firefly’s adult light organ and bioluminescence”.

Data set [1] deals with T1, AlABD-B (Aquatica leii, UniProt A0AAN7SB49 90-481). The data set is described as follows: EMSA; poly(dI-dC); signal significantly reduced by unlabeled WT probe; LightShift EMSA kit; 2.0 ug protein (stored in PBS, 10% glycerol), 0.2 pmol probe, 2 ug/uL poly(dI-dC), 60 min at room temperature, native 6% PAGE; binding buffer salt and pH not stated. The conditions noted are these: protein: recombinant; tags: His (pET28a, Ni-NTA); label: biotin; blunt. For orientation: Mobility shift assays separate free from complexed probe on a gel.

Data set [2] deals with T1, AlABD-B. The data set can be described thus: EMSA; poly(dI-dC); no significant complex detected; LightShift EMSA kit; 2.0 ug protein (stored in PBS, 10% glycerol), 0.2 pmol probe, 2 ug/uL poly(dI-dC), 60 min at room temperature, native 6% PAGE; binding buffer salt and pH not stated. Particulars: protein: recombinant; tags: His (pET28a, Ni-NTA); blunt.

T1 sequence (A0AAN7SB49 entry or part of it): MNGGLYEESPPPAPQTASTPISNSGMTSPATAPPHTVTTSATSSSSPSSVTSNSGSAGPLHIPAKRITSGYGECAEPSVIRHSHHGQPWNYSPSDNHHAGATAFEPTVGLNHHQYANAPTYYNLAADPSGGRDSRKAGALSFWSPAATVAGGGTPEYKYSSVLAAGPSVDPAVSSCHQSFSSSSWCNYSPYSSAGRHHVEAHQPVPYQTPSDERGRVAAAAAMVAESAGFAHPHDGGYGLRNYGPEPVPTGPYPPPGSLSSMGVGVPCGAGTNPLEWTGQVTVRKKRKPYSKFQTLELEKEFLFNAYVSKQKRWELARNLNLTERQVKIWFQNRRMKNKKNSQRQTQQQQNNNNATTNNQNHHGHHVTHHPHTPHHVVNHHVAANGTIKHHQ

B1: biotin-WT AlLuc1 promoter probe (dsDNA)
DNA 1: ATACATTAAAGTATCTAATAAAAATTAATGGTTCATTAAGATATATAAAAAACA
DNA 2: TGTTTTTTATATATCTTAATGAACCATTAATTTTTATTAGATACTTTAATGTAT
For B1, the binding result with AlABD-B [1] is listed as “binds”.

B2: ABD-B binding site mutation probe (dsDNA)
DNA 1: ATACATTAAAGTATCCGGCGGGAACCGGCAATCTGCCGGGATATATAAAAAACA
DNA 2: TGTTTTTTATATATCCCGGCAGATTGCCGGTTCCCGCCGGATACTTTAATGTAT
For B2, the binding result with AlABD-B [2] was “no binding”.
